Experiments:
[1] = target: T1, adrenomedullin (synthetic human AM)
T1 chain: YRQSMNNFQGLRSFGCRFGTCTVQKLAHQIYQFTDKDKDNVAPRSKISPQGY

[2] = target: T2, human complement factor H, P08603
T2 chain: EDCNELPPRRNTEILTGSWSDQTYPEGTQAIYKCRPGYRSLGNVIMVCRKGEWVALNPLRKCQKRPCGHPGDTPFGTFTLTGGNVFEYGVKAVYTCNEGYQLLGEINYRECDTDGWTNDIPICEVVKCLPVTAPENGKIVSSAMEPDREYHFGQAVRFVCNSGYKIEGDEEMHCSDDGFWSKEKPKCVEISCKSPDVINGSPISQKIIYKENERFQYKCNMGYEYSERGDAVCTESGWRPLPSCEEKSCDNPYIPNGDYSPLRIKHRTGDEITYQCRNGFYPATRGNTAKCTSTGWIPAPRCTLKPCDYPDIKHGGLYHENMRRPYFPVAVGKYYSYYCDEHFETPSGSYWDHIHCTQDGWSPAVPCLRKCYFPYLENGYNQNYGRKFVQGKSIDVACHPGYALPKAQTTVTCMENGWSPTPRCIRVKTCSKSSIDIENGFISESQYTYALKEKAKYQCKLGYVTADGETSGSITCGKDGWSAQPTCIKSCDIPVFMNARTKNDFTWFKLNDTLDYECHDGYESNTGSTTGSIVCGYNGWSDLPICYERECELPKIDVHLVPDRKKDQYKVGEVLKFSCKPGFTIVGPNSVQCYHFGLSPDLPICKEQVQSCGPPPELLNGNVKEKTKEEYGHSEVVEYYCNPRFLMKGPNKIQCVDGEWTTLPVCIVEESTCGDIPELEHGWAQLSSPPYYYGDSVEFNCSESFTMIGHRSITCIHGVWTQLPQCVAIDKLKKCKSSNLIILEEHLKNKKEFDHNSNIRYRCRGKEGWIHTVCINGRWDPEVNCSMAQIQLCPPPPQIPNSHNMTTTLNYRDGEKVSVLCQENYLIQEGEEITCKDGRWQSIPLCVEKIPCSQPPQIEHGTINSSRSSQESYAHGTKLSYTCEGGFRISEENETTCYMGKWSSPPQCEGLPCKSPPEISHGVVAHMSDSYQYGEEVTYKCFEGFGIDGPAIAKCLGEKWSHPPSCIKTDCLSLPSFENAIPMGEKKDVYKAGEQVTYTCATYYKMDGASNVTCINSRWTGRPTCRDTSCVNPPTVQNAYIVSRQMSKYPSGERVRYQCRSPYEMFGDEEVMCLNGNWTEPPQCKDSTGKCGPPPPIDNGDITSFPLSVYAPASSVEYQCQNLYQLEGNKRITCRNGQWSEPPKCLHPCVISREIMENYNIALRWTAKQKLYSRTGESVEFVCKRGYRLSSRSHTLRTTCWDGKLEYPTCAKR

B1: human recombinant MMP-2 (protein)
chain: YNFFPRKPKWDKNQITYRIIGYTPDLDPETVDDAFARAFQVWSDVTPLRFSRIHDGEADIMINFGRWEHGDGYPFDGKDGLLAHAFAPGTGVGGDSHFDDDELWTLGEGQVVRVKYGNADGEYCKFPFLFNGKEYNSCTDTGRSDGFLWCSTTYNFEKDGKYGFCPHEALFTMGGNAEGQPCKFPFRFQGTSYDSCTTEGRTDGYRWCGTTEDYDRDKKYGFCPETAMSTVGGNSEGAPCVFPFTFLGNKYESCTSAGRSDGKMWCATTANYDDDRKWGFCPDQGYSLFLVAAHEFGHAMGLEHSQDPGALMAPIYTYTKNFRLSQDDIKGIQELYGASPDIDLGTGPTPTLGPVTPEICKQDIVFDGIAQIRGEIFFFKDRFIWRTVTPRDKPMGPLLVATFWPELPEKIDAVYEAPQEEKAVFFAGNEYWIYSASTLERGYPKPLTSLGLPPDVQRVDAAFNWSKNKKTYIFAGDKFWRYNEVKKKMDPGFPKLIADAWNAIPDNLDAVVDLQGGGHSYFFKGAYYLKLENQSLKSVKFGSIKSDWLGC
AM fragments generated by MMP-2 digestion (mass spectrometry of HPLC peaks) [1]: These include AM(8-52), AM(11-52), AM(23-52), AM(29-52), AM(11-28), and AM(11-22)
degradation of synthetic AM (gel, HPLC, mass spectrometry) [1]: MMP-2 rapidly cleaves synthetic AM in a time-dependent manner
degradation of factor H (gel) [2]: is not a substrate for either one of the MMPs
